Legend:
[1] = test system: wheat-germ agglutinin isolated B-domain (WGA-B); settings: monovalent form of wheat-germ agglutinin (B-domain); Espinosa et al, 2000; cited from earlier work
[2] = ELISA binding of biotinylated lectin to oligosaccharide glycoconjugates; settings: for ELISA binding to non-fucosylated oligosaccharide LNT: LNT-BSA coated wells, absorbance 405 nm; for ELISA binding specificity towards fucosylated oligosaccharides: LNnF I, LNF II, LNF III, B-tri, SLex, SLea conjugates, absorbance 405 nm (FIG. 7)
Experimental: Purified Mono-F2 (SEQ ID NO: 4) and full length rAAL were biotinylated using IMMUNOPROBE™ Biotinylation Kit (Sigma-Aldrich, Stockholm, Sweden) according to the manufacturer's instruction. The biotin/protein ratio was determined to 1.1 biotin moieties per protein molecule for both Mono-F2 (SEQ ID NO: 4) and rAAL. Microtiter plates (Nunc MaxiSorp™ eBioscience, San Diego, CA) were coated with 0.2 μg of LNnF I-BSA, LNF II-BSA, LNF III-HSA, LNT-BSA; 0.1 μg of B-tri-HSA, SLex-HSA and SLea-HSA in 100 μL coating buffer (15 mM Na2CO3, 35 mM NaHCO3, 0.02% NaN3, pH 9.6). Then 100 μL of biotinylated Mono-F2 (SEQ ID NO: 4) or full length rAAL was added to the wells. After addition of ExtrAvidin (E-2632 Sigma-Aldrich, Stockholm, Sweden) and phosphatase substrate (Sigma 104®, Sigma-Aldrich, Stockholm, Sweden) the amount of Mono-F2 (SEQ ID NO: 4) or full length AAL binding to each well were measured at 405 nm using a VERSAmax microplate reader (Molecular Devices Corporation, Sunnyvale, CA).
To analyze whether the His-tag on Mono-F2 (SEQ ID NO: 4) affected the fucose binding the ELISA analysis was also performed using Mono-F2 (SEQ ID NO: 4) pre-treated with thrombin protease to remove the His-tag. Biotin labelled Mono-F2 (SEQ ID NO: 4) (50μg) in PBS was incubated with 2 units of thrombin protease (Amersham Biosciences, Uppsala, Sweden) for 2 hours at room temperature.

[3] = test system: human type 0 erythrocytes; assay: Hemagglutination activity with human type 0 erythrocytes; assay type: cell-based; settings: 2% human type 0 erythrocytes in PBS, room temperature, 1 h; for minimum lectin concentration that gave hemagglutination (molar): approximate conversion of μg/ml
Experimental: The hemagglutination activity of full length rAAL and Mono-F2 (SEQ ID NO: 4) was determined by serial dilutions of the lectins in PBS and mixing with an equal volume (50μL) of 2% human type 0erythrocytes suspended in PBS. After incubation at room temperature for 1h the minimum lectin concentration that gave a positive reaction was determined.

[4] = Affinity chromatography on fucose-agarose column; assay type: binding
Experimental: Purified Mono-F2 (SEQ ID NO: 4) was analyzed on a 1 mL fucose-agarose column (Sigma-Aldrich, Stockholm, Sweden). The column was equilibrated with 20mL PBS. Mono-F2 (SEQ ID NO: 4) was added and the column was incubated for 20 minutes at 4° C. with gentle rocking. After incubation the column was washed with PBS until the absorbance at 280 nm had reached zero. Elution was performed with 4 mL of 0.15 M L-fucose in PBS, 4 mL of 1 M L-fucose in PBS, and lastly with glycine buffer pH 2.5. Fractions (1 mL) were collected with monitoring of absorbance at 280 nm. The fractions were further analysed by SDS-PAGE.

[5] = Oligosaccharide affinity chromatography on silica column with immobilized Mono-F2; assay type: binding, human
Experimental: FIG. 5 - chromatograms of some fucosylated human milk oligosaccharides (LNnF I, LNF II and LNF III) and a non-fucosylated control (LNT) on a silica column with immobilized Mono-F2 (SEQ ID NO: 4).
Mono-F2 (SEQ ID NO: 4) was immobilized on silica particles (5μM, 300 Å) and packed in an affinity column (50×0.32 mm) and chromatography of a number of oligosaccharides were examined. […] Elutions of oligosaccharides were detected by UV absorbance at 210 nm.

Row | Molecule | ELISA binding to non-fucosylated oligosaccharide LNT [2] | ELISA binding specificity towards fucosylated oligosaccharides [2] | minimum lectin concentration that gave hemagglutination [3] [µg/mL] | minimum lectin concentration that gave hemagglutination (molar) [3] [µM] | other results
1 | CC(=O)N[C@H]1[C@H](O[C@H]2[C@H](O)[C@@H](NC(C)=O)C(O)O[C@@H]2CO)O[C@H](CO)[C@@H](O[C@@H]2O[C@H](CO)[C@@H](O)[C@H](O)[C@H]2NC(C)=O)[C@@H]1O (stereo partly drawn) [chitotriose, N,N′, N″-triacetylchitotriose] |  |  |  |  | binding affinity [1]: millimolar range
2 | rAAL: Recombinant full length His-tagged Aleuria aurantia lectin (protein, UniProt P18891 2-313, looked up, His-tag, Recombinant full length His-tagged Aleuria aurantia lectin) Fucose-specific lectin: PTEFLYTSKIAAISWAATGGRQQRVYFQDLNGKIREAQRGGDNPWTGGSSQNVIGEAKLFSPLAAVTWKSAQGIQIRVYCVNKDNILSEFVYDGSKWITGQLGSVGVKVGSNSKLAALQWGGSESAPPNIRVYYQKSNGSGSSIHEYVWSGKWTAGASFGSTVPGTGIGATAIGPGRLRIYYQATDNKIREHCWDSNSWYVGGFSASASAGVSIAAISWGSTPNIRVYWQKGREELYEAAYGGSWNTPGQIKDASRPTPSLPDTFIAANSSGNIDISVFFQASGVSLQQWQWISGKGWSIGAVVPTGTPAGW | only low background binding | bound to all fucosylated oligosaccharides | 2.5 | ~0.071 | 
3 | Mono-F2: Recombinant His-tagged monovalent fucose-binding fragment of Aleuria aurantia lectin, site 2 (AAL aa 51-161) (protein, listed as Aleuria aurantia, His tag) SQNVIGEAKLFSPLAAVTWKSAQGIQIRVYCVNKDNILSEFVYDGSKWITGQLGSVGVKVGSNSKLAALQWGGSESAPPNIRVYYQKSNGSGSSIHEYVWSGKWTAGASFG | only low background binding | binding only non-sialylated oligosaccharide structures with α1-2 or α1-4 linked fucose | > 200 | > 14 | elution from fucose-agarose column with 0.15 M L-fucose ([4]; 4 mL of 0.15 M L-fucose in PBS): could not be eluted; elution from fucose-agarose column with 1 M L-fucose ([4]; 4 mL of 1 M L-fucose in PBS): Very little was eluted; binding to immobilized fucose (conclusion; low-pH buffer needed for full elution) ([4]; glycine buffer pH 2.5 needed for full elution): high affinity binding to fucose; retention of non-fucosylated LNT on immobilized Mono-F2 column ([5]; LNT (non fucosylated) control): not bound to the column; retention of fucosylated oligosaccharides LNF I, LNF II and LNF III on immobilized Mono-F2 column ([5]; increasing retention times LNF I, LNF II, LNF III, UV 210 nm): retarded on the column
4 | Mono-F2-T: Mono-F2 pre-treated with thrombin protease to remove the His-tag (protein, listed as Aleuria aurantia, His-tag removed by thrombin) SQNVIGEAKLFSPLAAVTWKSAQGIQIRVYCVNKDNILSEFVYDGSKWITGQLGSVGVKVGSNSKLAALQWGGSESAPPNIRVYYQKSNGSGSSIHEYVWSGKWTAGASFG |  |  |  |  | ELISA binding compared with non-treated Mono-F2 ([2]; LNnF I-, LNF II- and LNF III-BSA conjugates, His-tag removed with thrombin (FIG. 8)): identical binding

Source: patent US8178319B2, “Peptides and uses thereof” (priority 2008, dated 2012)
